Laboratory results from patent US12059562B2, “Systems for electrical stimulation” (priority 2018, dated 2024).

Test system: Micrococcus lysodeikticus cells
Assay: Lysozyme enzyme activity assay
Format: biochemical
Conditions: micropost tips 80% lysozyme and 20% PEO 200k versus uncompressed powder
Experimental: To measure the activity of lysozyme, the assay provided by Sigma Aldrich was used which measures the amount of lysed Micrococcus lysodeikticus cells. Briefly, a 200 unit/mL Lysozyme solution in 50 mM Potassium Phosphate Buffer was added to a 0.015% [w/v] Micrococcus lysodeikticus cell suspension in the same buffer. The decrease was recorded in A450 over 5 minutes. Nine micropost tips were fabricated from 80% lysozyme and 20% PEO 200k and dissolved sets of three micropost tips together. Triplicate assays were performed on each dissolved solution for a total of nine tests and the results were compared to the results of a solution made with lysozyme that was not compressed into a micropost tip.

lysozyme
enzymatic activity after the manufacturing process: maintain their activity
